The values that follow come from the RNAGym collection of RNA variant scans (doi:10.1073/pnas.2313332121).

First the molecules themselves.
B1: TPR 5TU (parent)
chain: GGAUCUUCUCGAUCUAACAAAAAAGACAAAUCUGCCACAAAGCUUGAGAGCAUCUUCGGAUGCAGAGGCGGCAGCCUUCGGUGGCGCGAUAGCGCCAACGUUCUCAACUAUGACACGCAAAACGCGUGCUCCGUUGAAUGGAGUUUAUCAUG

This sample holds only a part of the variants without activity. Where only a bound is given, the exact number is not on record here.

Variants of B1 are the subject of the data set. Description: polymerase ribozyme fitness, log enrichment relative to wild type (log ratio); higher = more active; in vitro selection for triplet polymerase activity. In short, it runs like this: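 Frozen incubation at −7 °C formed the core of a single, triplicate in vitro selection round applied to PCR-built, transcribed mutant libraries of each subunit of a heterodimeric triplet polymerase ribozyme. Extended constructs were gel-excised, captured with streptavidin beads and amplified by RT-PCR, and input and output libraries were Illumina-sequenced with a filter of ≥10 input reads and ≥1 read per output. Fitness is the logarithm of genotype enrichment relative to wild-type enrichment, with inverse-variance-weighted replicate averaging, and the logarithm is base 2.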
In the case of A16U A41G, the “polymerase ribozyme fitness (log ratio)” value was -1.88.
Consider A17C U44G U61G, for which the “polymerase ribozyme fitness (log ratio)” value was no more than -4.2.
For U15A C75G C108U, the “polymerase ribozyme fitness (log ratio)” value was -4.16.
The result for A16C A89U A91U U127C reads no more than -4.2; that for U15C A91U, no more than -4.2.
As for A17C U53A G71C G83A A91U C93A C108U U127G, the “polymerase ribozyme fitness (log ratio)” value was no more than -4.2.
The result for A16U C85U U144C reads -2.3; that for A16C C79A A91U C116A C149A, no more than -4.2; that for A16U A49G, -1.93.
The result for A16C C38U G50A C95G C116G reads -4.14; that for C14U U55A C85G C93U C96A U102A A115G, no more than -4.2; that for A16U A19U C32G A60U A91U C99U A138C, no more than -4.2.
As for U15A G83U, the figure is -0.19; as for A16G G34U A52U A60G G88U A91U G140C, -4.14.
Take A16G A40G G86C: the “polymerase ribozyme fitness (log ratio)” value was no more than -4.2.
For A16U A37U C79A C99U U139A A142U, the “polymerase ribozyme fitness (log ratio)” value is no more than -4.2.
As for A16G G86U C132U U135G, the “polymerase ribozyme fitness (log ratio)” value was no more than -4.2.
Turning to A17G A21C C116U, the “polymerase ribozyme fitness (log ratio)” value amounted to 0.03.
In the case of A16U A20U G58C G86A, the “polymerase ribozyme fitness (log ratio)” value was -3.79.
With A16U C93U, the “polymerase ribozyme fitness (log ratio)” value is -2.81.
A16C A20G C27U A60G G117A: the “polymerase ribozyme fitness (log ratio)” value is -3.38.
As for A16U G59C A150U, the figure is -0.494; as for U15G U45C G71A G94U U134C A138U U145G, no more than -4.2; as for A17G C85G, -1.33.
The result for A16G C35A reads -3.53.
As for C14U U15A C93U U101A, the figure is -2.56; as for A16C A19G G34A G71A C87G U145A U146C, no more than -4.2; as for A16U A20C A41U C87G A98G, no more than -4.2.
With A16G A23U A29G A37U C43U C79G C99A A122G, the “polymerase ribozyme fitness (log ratio)” value was no more than -4.2.
As for U15G A47C, the figure is -0.922.
The result for A16G A97G U144G reads -0.0952.
The result for U15G U55A reads -0.257.
As for U15C C87U A142U, the “polymerase ribozyme fitness (log ratio)” value was -0.702.
The result for A16G A52G C57U A73C C85U C96G reads no more than -4.2; that for A16U A22U C38U C85U, -2.73.
As for A16G A22U A91U C93U U102G G128U, the figure is no more than -4.2; as for A16U U56A A60U C93U G141U, -3.72.
The result for A16U A24U U33A C35U C87G reads -4.15; that for A16C C54G U77G C85U U135C, no more than -4.2; that for A17C A52C C79A G81A G84U A110G G112C, no more than -4.2.
On to U15C C54A C87U G94A A98U C125A, for which the “polymerase ribozyme fitness (log ratio)” value was -3.98.
As for A16U C18A A21C A73U G92U, the “polymerase ribozyme fitness (log ratio)” value was -2.75.
The result for A16U U82G C87U A122C reads -2.32; that for A17C G25C A41U C51A G84C G94U A110G U144C U146G, no more than -4.2.
Consider A16U A19C C57U G71C U134G G141U, for which the “polymerase ribozyme fitness (log ratio)” value is no more than -4.2.
As for A17G A22G U56A, the figure is 0.0483.
The result for U15G A41U A73G reads -1.57.
As for A16C G86C A110G, the figure is no more than -4.2; as for A16U A17G C85G, -4.18; as for A16U A26C G84A, -3.52.
A16G C27A G58C C85A C96G C116U G143C U148A: the “polymerase ribozyme fitness (log ratio)” value was no more than -4.2.
As for A16U C27A G42A U44G U45A A49C A113G U144A, the figure is no more than -4.2; as for A16U C87U, -2.65; as for U15A G59A A60G C69A A121C G140A, -3.82.
The result for U15G U53A A60C G83A C85U reads -3.78.
As for A16C A21U A39C U44A U45A A49G G84A G126U, the figure is no more than -4.2; as for A17G C38U G81A C96A, 0.341; as for A17C A52G G81A G83A A98U, -0.507.
Take A16U U53A A66G C87A: the “polymerase ribozyme fitness (log ratio)” value was no more than -4.2.
The result for U15G C38U C87U U104A reads -1.04; that for C14U G143A, -1.26.
The result for A17C C93U reads -1.02.
The result for U15C A28G U146C reads no more than -4.2; that for A16G A23U A29G A47C G50A C87G A106U U135C A147U, no more than -4.2; that for U15C C18A G83A C93U A122U, -1.53.
A16U C43U C87U U104G A107G C118A: the “polymerase ribozyme fitness (log ratio)” value was no more than -4.2.
As for A16C A52G U55A G94U A107G, the figure is no more than -4.2; as for A16C A41C C57G G59C U135A, -3.85.
In the case of A17C U31C A47C U55A C76U G84U, the “polymerase ribozyme fitness (log ratio)” value was -3.49.
As for A16C A24U G46C C105G C108G, the figure is no more than -4.2.
The result for A17G A52C reads -0.98.
The result for A16G G34U A52U A60G C72G G88U A91U G140C reads no more than -4.2.
Turning to A16U A20U U146A, the “polymerase ribozyme fitness (log ratio)” value was -3.95.
Turning to A17C U33C G83A G141U, the “polymerase ribozyme fitness (log ratio)” value is no more than -4.2.
As for A16U A20C G83C C96A A107G, the figure is no more than -4.2; as for A16U A28U C54U G117C, no more than -4.2; as for C14U G141U, 0.0902.
In the case of U15G C38U U55A U56A C57G C85U A147C, the “polymerase ribozyme fitness (log ratio)” value was -2.05.
As for U15A A17U C57G G88U A91C U111C C129A U134G U148C, the figure is no more than -4.2.
The result for A16U A17U U44A C54U A66G A89G G140C reads no more than -4.2; that for C14U U31A G48C G67C A91U, no more than -4.2.
Turning to A17C A19G C51U G59U C75A A91U C116G A121C, the “polymerase ribozyme fitness (log ratio)” value was no more than -4.2.
As for A16U A22C G59A C118A, the figure is -3.09; as for A17G C69G C85G A107C A122G, no more than -4.2.
